{"source": "paper PMC7222407", "biological_target": "Cu,Zn superoxide dismutase (SOD1) from Chionodraco hamatus (Chionodraco hamatus)", "assay": "SEC; gel exclusion chromatography on a Sephadex G-75 column against standards (bovine serum albumin, ovalbumin, chymotrypsinogen A, cytochrome c); native mass compared with the monomer mass from SDS-PAGE with 2-mercaptoethanol and MALDI-TOF"}
{"substance": "Cu,Zn superoxide dismutase (SOD1) from Chionodraco hamatus (enzyme)", "values": [{"measurement": "stoichiometry N", "value": 2}]}
